Data from US20250236670A1 (WISTAR INSTITUTE OF ANATOMY AND BIOLOGY, published 2025).

What was measured:
[1] = biological target: T1, human Siglec-7 on cells (HEK293T-Siglec7 cells; human NK cells and other PBMC populations) (human, UniProt Q9Y286 19-467); assay: cell-based or functional assay
[2] = biological target: T2, recombinant human Siglec-7 protein (human, UniProt Q9Y286 19-353, limits assumed); assay: SPR, 'Binding of DB7.2 to Siglec-7' [panel B]
T2 construct: Used in ELISA, Western blot and SPR
T2 sequence (Q9Y286 19-353 limits assumed): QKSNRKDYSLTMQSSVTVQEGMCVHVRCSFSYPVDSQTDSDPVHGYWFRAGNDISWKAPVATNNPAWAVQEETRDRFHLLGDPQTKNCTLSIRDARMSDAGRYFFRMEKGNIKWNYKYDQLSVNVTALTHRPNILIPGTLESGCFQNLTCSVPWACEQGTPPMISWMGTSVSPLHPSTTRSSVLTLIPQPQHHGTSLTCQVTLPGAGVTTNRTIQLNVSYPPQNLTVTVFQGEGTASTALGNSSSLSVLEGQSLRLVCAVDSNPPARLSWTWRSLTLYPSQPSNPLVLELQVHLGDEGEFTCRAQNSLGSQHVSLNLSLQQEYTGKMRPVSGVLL

[3] = biological target: T2, recombinant human Siglec-7 protein; assay: SPR, titration of anti-Siglec-7 on recombinant human Siglec-7 protein (FIG. 16B)
[4] = biological target: T1, human Siglec-7 on cells …; assay: flow cytometry on HEK293T-Siglec-7 cells, GFP against Siglec-7 staining [panel B]
Description: For the non-conjugated primary antibodies, PE-secondary anti-human (H+L) (Invitrogen) and PE/AF647-secondary anti-human F(ab′)₂ (Jackson ImmunoResearch Laboratories Inc) were used. Live/Dead Violet viability kit (Invitrogen) was used to exclude dead cells from analysis. For Fluorescence cytometry staining on PBMCs, the following antibodies were used: CD69 PE-Cy5 (clone FN50), PD-1 BV421 (clone EH12.2H7), CCR7 APC-Cy7 (G043H7), CD19 BV785 (clone HIB19), CD27 BV650 (clone 0323), CD56 BV570 (clone HCD56), CD16 BV711 (clone 3G8), CD21 PE-Cy7 (clone BU32) and Siglec-7 (clone 6-434) from Biolegend; CD11c BUV395 (clone B-ly6), CXCR5 BV750 (clone RF8B2), CD3 BUV805 (UCHT1), CD45 AF700 (clone HI30), CD127 PE-CF594 (clone HIL-7RM21), CD25 BUV737 (clone 2A3), CD8 BUV496 (clone RPA-T8), HLA-DR BV605 (clone G46-6), CD38 BUV661 (clone HIT2), CD14 BV480 (clone MP9), CD45RA BUV563 (HI100), CD4 BB790 (clone SK3), CD15 FITC (clone HI98), CD103 BB700 (clone Ber-ACT8), CD161 APC (clone DX12) from BD Biosciences. […] Cells were washed with PBS and incubated with 0, 1 or 10 ug/ml of DB7.2 Siglec-7 antibody diluted in fluorescence-activated cell sorting (FACS) buffer for 20 minutes. […]

[5] = biological target: T2, recombinant human Siglec-7 protein; assay: ELISA on recombinant human Siglec-7, dilution series (axis 'Dilutions', no concentration unit) [panel A]

T1 sequence (Q9Y286 19-467): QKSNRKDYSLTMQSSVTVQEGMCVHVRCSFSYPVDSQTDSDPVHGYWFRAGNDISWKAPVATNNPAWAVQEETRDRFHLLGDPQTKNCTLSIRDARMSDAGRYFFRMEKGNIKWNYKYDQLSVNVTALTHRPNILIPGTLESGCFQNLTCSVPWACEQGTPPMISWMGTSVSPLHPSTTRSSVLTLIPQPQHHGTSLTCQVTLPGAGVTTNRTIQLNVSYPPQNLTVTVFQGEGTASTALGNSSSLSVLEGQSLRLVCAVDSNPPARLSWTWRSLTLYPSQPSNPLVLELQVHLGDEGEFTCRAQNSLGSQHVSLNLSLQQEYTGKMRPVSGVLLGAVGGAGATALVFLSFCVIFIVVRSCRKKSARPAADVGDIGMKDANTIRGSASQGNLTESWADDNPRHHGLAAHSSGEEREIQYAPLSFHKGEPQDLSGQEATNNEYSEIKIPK

Binder | IC50, killing of OVISE cells in the presence of human PBMCs (xCELLigence, cell index vs dose at 72 h) [1] | binding result [4] | binding result [5] | also measured
DB7.2 (DB-S7-2) Siglec-7 MAb (antibody, human IgG1, V domains shown, Expressed as human IgG1; The VH is the same as that of DB-S7-1 and DB-S7-7; also called DB7.2 Siglec-7 DMAb; DB7.2 anti-Siglec-7 antibody) VH: QVQLVESGGGVVQPGRSLRLSCAASGFTFRTDAMHWVRQAPGKGLEWVAVIWYDGSIKYHADSVKGRFTISRDNSKNTLYLEMNSLRAEDTAVYYCARDRSNSLDHWGQGILVSVSS VL: not shown | 82.7 nM | – | – | EC50, killing of PEO4 cells in the presence of human PBMCs (xCELLigence) [1]: 68.9 nM; koff [2]: 3.6e-05 s⁻¹; kon [2]: 830000 M⁻¹ s⁻¹; t1/2 [2]: 5.33 h; Kd [3]: 0.044 nM
DB7.2_TM Mod (antibody, human IgG1, V domains shown) VH: QVQLVESGGGVVQPGRSLRLSCAASGFTFRTDAMHWVRQAPGKGLEWVAVIWYDGSIKYHADSVKGRFTISRDNSKNTLYLEMNSLRAEDTAVYYCARDRSNSLDHWGQGILVSVSS VL: not shown | 192 nM | – | – | –
DB7.1 (DB-S7-1) Siglec-7 MAb (antibody, human IgG1, V domains shown, Expressed as human IgG1 (HC + LC plasmids in pVax1, Expi293F cells)) VH: QVQLVESGGGVVQPGRSLRLSCAASGFTFRTDAMHWVRQAPGKGLEWVAVIWYDGSIKYHADSVKGRFTISRDNSKNTLYLEMNSLRAEDTAVYYCARDRSNSLDHWGQGILVSVSS VL: not shown | – | binds | binds | –
DB7.7 (DB-S7-7) Siglec-7 MAb (antibody, human IgG1, V domains shown, Expressed as human IgG1) VH: QVQLVESGGGVVQPGRSLRLSCAASGFTFRTDAMHWVRQAPGKGLEWVAVIWYDGSIKYHADSVKGRFTISRDNSKNTLYLEMNSLRAEDTAVYYCARDRSNSLDHWGQGILVSVSS VL: not shown | – | binds | binds | –
